T1: soluble extracellular D2-D3 region of human FGFR1c (Asp142-Arg365) (human, UniProt P11362 142-365)
T1 chain: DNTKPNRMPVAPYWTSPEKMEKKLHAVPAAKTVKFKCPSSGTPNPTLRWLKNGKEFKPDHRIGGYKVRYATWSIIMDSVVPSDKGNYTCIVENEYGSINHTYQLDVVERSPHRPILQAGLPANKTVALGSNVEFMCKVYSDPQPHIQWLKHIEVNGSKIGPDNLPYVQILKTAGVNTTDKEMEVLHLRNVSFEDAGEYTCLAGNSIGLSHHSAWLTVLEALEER

T2: soluble extracellular D2-D3 region of human FGFR1c (Asp142-Arg365) (human, UniProt P11362 142-365)
T2 construct: fibroblast growth factor receptor 1, 'c' splice isoform, human, extracellular D2-D3 region, residues Asp142-Arg365; also called FGFR1c ectodomain; FGFR1c isoform; source: E. coli (BL21), purified
T2 sequence (looked up): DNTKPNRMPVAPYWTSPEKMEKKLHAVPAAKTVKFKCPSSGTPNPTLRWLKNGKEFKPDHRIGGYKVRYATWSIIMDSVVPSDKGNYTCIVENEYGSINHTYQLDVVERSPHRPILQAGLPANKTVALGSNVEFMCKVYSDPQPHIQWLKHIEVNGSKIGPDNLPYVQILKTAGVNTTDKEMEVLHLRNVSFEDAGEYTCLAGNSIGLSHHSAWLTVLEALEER


How the values were obtained:
[1] = molecular target: T1, soluble extracellular D2-D3 region of …; test: SPR
[2] = molecular target: T2, soluble extracellular D2-D3 region of …; test: SPR; BIAcore T200; HBS-EP buffer (10 mM HEPES-NaOH, pH 7.4, 150 mM NaCl, 3 mM EDTA, 0.005% Surfactant P20); which partner was immobilised is not told in the main text; settings: both partners purified

| Kd [1] | binding result [2] | Binder |
| --- | --- | --- |
| 464 nM | binds | full length mature form human FGF4 (mFGF4) (Ala31-Leu206) (ligand, UniProt P08620 31-206, looked up, fibroblast growth factor 4, human, full length mature form, residues Ala31-Leu206; also called wild-type parent molecule; source: E. coli (BL21), purified) APTAPNGTLEAELERRWESLVALSLARLPVAAQPKEAAVQSGAGDYLLGIKRLRRLYCNVGIGFHLQALPDGRIGGAHADTRDSLLELSPVERGVVSIFGVASRFFVAMSSKGKLYGSPFFTDECTFKEILLPNNYNAYESYKYPGMFIALSKNGKTKKGNRVSPTMKVTHFLPRL |
| 716 nM | binds | N-terminally truncated human FGF4 (rFGF4) (Ala67-Leu206) (domain or fragment, UniProt P08620 67-206, looked up, fibroblast growth factor 4, human, engineered N-terminal truncation, residues Ala67-Leu206; also called truncated rFGF4; source: E. coli (BL21), purified) AAVQSGAGDYLLGIKRLRRLYCNVGIGFHLQALPDGRIGGAHADTRDSLLELSPVERGVVSIFGVASRFFVAMSSKGKLYGSPFFTDECTFKEILLPNNYNAYESYKYPGMFIALSKNGKTKKGNRVSPTMKVTHFLPRL |

Reference: paper PMC8671394, “Paracrine FGFs target skeletal muscle to exert potent anti-hyperglycemic effects” (Nature Communications, 2021)
